# In patent US9725708B2, “Methods of modulating ubiquitin ligase activity” (Board of Supervisors of Louisiana State University and …, priority 2012, dated 2017):
# T1: E6AP ligase (Homo sapiens, UniProt Q05086)
# T1 construct: corresponding to full-length GST-E6AP; made in house; host or cells: E. coli
# T1 sequence (Q05086 1-872 isoform Q05086-3): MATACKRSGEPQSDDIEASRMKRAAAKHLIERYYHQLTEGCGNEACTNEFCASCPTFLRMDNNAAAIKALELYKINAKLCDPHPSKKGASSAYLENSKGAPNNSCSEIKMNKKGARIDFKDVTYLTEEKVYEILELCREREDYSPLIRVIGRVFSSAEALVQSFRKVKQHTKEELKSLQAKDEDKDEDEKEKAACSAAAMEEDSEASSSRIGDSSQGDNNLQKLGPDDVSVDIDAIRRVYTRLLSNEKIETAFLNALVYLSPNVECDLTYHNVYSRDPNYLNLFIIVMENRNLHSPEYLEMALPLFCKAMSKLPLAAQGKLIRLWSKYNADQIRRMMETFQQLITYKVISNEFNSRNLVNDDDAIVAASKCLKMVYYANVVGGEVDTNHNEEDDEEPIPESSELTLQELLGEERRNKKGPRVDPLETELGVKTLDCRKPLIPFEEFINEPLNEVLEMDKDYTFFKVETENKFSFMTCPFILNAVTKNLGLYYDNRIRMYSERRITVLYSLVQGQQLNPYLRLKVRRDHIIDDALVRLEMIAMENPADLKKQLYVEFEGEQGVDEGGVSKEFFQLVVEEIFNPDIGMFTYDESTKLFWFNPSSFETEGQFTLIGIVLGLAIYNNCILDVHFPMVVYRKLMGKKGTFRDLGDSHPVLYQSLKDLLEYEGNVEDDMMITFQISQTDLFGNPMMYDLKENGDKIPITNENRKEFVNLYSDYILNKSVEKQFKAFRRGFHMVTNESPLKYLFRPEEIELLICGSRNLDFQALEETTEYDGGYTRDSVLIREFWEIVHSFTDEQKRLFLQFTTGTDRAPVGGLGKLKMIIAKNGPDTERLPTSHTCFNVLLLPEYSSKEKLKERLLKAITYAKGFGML
# B1: E6 protein: recombinant human papilloma virus 16 E6 protein, 158 amino acids (protein)
# chain: MHQKRTAMFQDPQERPRKLPQLCTELQTTIHDIILECVYCKQQLLRREVYDFAFRDLCIVYRDGNPYAVCDKCLKFYSKISEYRHYCYSLYGTTLEQQYNKPLCDLLIRCINCQKPLCPEEKQRHLDKKQRFHNIRGRWTGRCMSCCRSSRTRRETQL
# Target: T1, E6AP ligase
# Assay: E6AP-catalyzed 125I-polyubiquitin chain formation, initial rates
# Format: biochemical
# Experimental: E6AP-catalyzed ^125I-Ubiquitin Conjugation Assay: The E3 ligase activity of recombinant E6AP ligase was quantitated in kinetic assays under initial velocity conditions (Ronchi et al., (2013) J. Biol. Chem. 288, 10349-10360, Ronchi & Haas (2012) Methods Mol. Biol. 832: 197-218). Rates of E6AP-catalyzed ^125I-polyubiquitin chain formation were measured at 37° C. in incubations of 25-μl final volume containing 50 mM Tris-HCl (pH 7.5), 1 mM ATP, 10 mM MgCl2, 1 mM DTT, 10 mM creatine phosphate, 1 IU of creatine phosphokinase, 5 μM ^125I-ubiquitin (approximately 1.5×10^4 cpm/pmol), 50 nM human Uba1, and the indicated concentrations of UbcH7 and E6AP ligase (Siepmann et al., (2003) J. Biol. Chem. 278: 9448-9457; Baboshina et al., (2001) J. Biol. Chem. 276: 39428-39437).
# Reactions were initiated by the addition of ^125I-ubiquitin. After 10-30 min, the reactions were quenched by the addition of 25 μl of 2×SDS sample buffer containing 0.3% (v/v) β-mercaptoethanol, and then the samples were heated to 100° C. for 3 min. The polyubiquitin conjugates were resolved from free ^125I-ubiquitin by 12% (w/v) SDS-PAGE under reducing conditions at 4° C. and visualized by autoradiography of the dried gels.
# Polyubiquitin chain formation was measured by excising lanes between the top of the resolving gel and the top of the stacker gel, representing anchored and free ^125I-polyubiquitin chains, respectively, and quantitating associated ^125I-ubiquitin by γ-counting. Absolute rates of ^125I-polyubiquitin chain formation were calculated from the associated radioactivity and the corrected specific radioactivity for ^125I-ubiquitin. Datum points represent single assay determinations, and complete data sets were evaluated by non-linear regression analysis using GraFit version 5.0 (Erithicus). Active Uba1, E2, and E6AP ligase were independently determined in parallel by their stoichiometric formation of ^125I-ubiquitin thioester.
molecule,measurement,setting,value
B1,"effect on initial rate, wild-type protein","20 nM E6 protein, 1 nM GST-E6AP",significantly enhanced
same,Kactivation,activation of E6AP ligase catalytic activity,1.5 nM
same,Kd,"from double reciprocal plot, His6-E6AP, read-out: Kd for E6 binding",1.5 nM
same,kcat,"in the presence of 20 nM E6 protein, 0.4 nM His6-E6AP",0.81 ± 0.045 s⁻¹
same,stimulation in E6AP ligase activity,saturating E6 protein,14 fold
same,mode of action,with respect to [UbcH7]o,non-essential activator
